Test results from publication PMC6816377 (mAbs, 2019).
Substitutions are numbered along the chain they refer to. Blank lines part the entries; values can stand above or below the binder they belong to.

How the values were obtained:
hen egg lysozyme [1] = target: T1, hen egg lysozyme (Gallus gallus (hen egg white), UniProt P00698); assay: flow cytometry on cells
hen egg lysozyme [2] = target: T1, hen egg lysozyme; assay: BLI
hen egg lysozyme [3] = target: T1, hen egg lysozyme; assay: ELISA

T1 sequence (P00698 19-147): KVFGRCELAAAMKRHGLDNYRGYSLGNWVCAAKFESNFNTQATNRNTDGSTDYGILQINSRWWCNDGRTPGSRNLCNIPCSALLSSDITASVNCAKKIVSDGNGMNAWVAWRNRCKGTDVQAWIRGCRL

B2: HEL23 variant 1 (antibody, V domains shown)
VH: EVQLRQSGAELMKPGASVKISCKATGYTFSNYWIGWVKQRPGHGLEWIGEILPGSGSTNYNEKFKGKATFTADTSSNTAYMQLSSLTSEDGAVYYCARDSSGGFVYWGRGTLVTVSA
VL: DIVLTQSPAIMSASLGERVTMTCTASSNVSSSYLHWYQQKPGSSPKLWIYSTSNLASGVPARFSGSGSGTSYSLTISSMEAEDAATYYCHQYHRSPPTFGAGTKLEIK
- binding result (hen egg lysozyme [2]): binds

B3: HEL23 variant 5 (antibody, V domains shown)
VH: B2 VH with R5Q, G54S, T78I, G91S, V105A, R109Q
VL: B2 VL
- binding result (hen egg lysozyme [3]): binds

B4: HEL23 variant 3 (antibody, V domains shown)
VH: B2 VH with R5Q, C22S, S84N, G91S, V105A, R109Q
VL: B2 VL
- binding result (hen egg lysozyme [3]): binds

Other lines, results leading:

- binding result (hen egg lysozyme [1]): binds
B1: HEL23 (antibody, V domains shown)
VH: B2 VH with R5Q, G91S, V105A, R109Q
VL: B2 VL

- binding result (hen egg lysozyme [3]): binds
B5: HEL23 variant 4 (antibody, V domains shown)
VH: B2 VH with L4V, R5Q, M12K, G54S, G56S, G91S, V105A, R109Q, T111S
VL: B2 VL
